For the assay, the target named is T1, XcpX (29–313), soluble form (P. aeruginosa, UniProt Q00518 29-313).
T1 construct: minor pseudopilin XcpX (GspK) of Pseudomonas aeruginosa, soluble form, residues 29-313; buffers with XcpX held 1 mM CaCl2; The XcpVWX complex was digested in situ with chymotrypsin before crystallisation; also called XcpX^(GspK); GspK; source: E. coli BL21 (DE3), purified (Ni2+-NTA, TEV digestion, Superdex 75); not shown: thioredoxin (Trx), N-terminal, cleaved
T1 sequence: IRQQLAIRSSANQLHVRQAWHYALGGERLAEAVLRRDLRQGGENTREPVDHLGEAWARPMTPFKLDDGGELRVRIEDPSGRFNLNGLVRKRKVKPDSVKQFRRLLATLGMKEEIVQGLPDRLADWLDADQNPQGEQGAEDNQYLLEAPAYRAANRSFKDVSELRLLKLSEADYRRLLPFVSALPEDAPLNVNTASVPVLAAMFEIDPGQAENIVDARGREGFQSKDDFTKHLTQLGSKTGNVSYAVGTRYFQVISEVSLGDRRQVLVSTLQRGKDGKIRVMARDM
The assay is described as follows: SAXS with inline SEC; XcpUVWX complex at 6.15 mg/ml in 25 mM HEPES pH 7.0, 150 mM NaCl, 5% glycerol, 2 mM DTT. The following applies: both partners purified.

B1: XcpV (28–129), soluble form (domain or fragment)
chain: SASARSLQNASRLEDKTLAMWIADNRLNELQLEQTPPSSGRNQGELEFAGRRWEWRTQVDSTAEQDMRRVIVWVAAKPLGRERGSIEERAAARLVGFLGSQP
notes: minor pseudopilin XcpV (GspI) of Pseudomonas aeruginosa, soluble form, residues 28-129; The XcpVWX complex was digested in situ with chymotrypsin before crystallisation; the chains in PDB 5VTM may be shorter; also called XcpV^(GspI); GspI; source: E. coli BL21 (DE3), purified (Ni2+-NTA, TEV digestion, Superdex 75); not shown: thioredoxin (Trx), N-terminal, cleaved
On to B1, for which the binding result was “binds”.
